In article PMC7901142 (The Journal of Cell Biology, 2021) one finds Kd data, which are given here for 1 molecule.

The assay has as its target SNX27-PDZ WT (human, UniProt Q96L92 43-136). Put plainly: ITC. A general note: In ITC the heat of successive injections is recorded.

B1: SEMA4C (aa 686–833) (domain or fragment)
chain: LRRRLREELEKGAKATERTLVYPLELPKEPTSPPFRPCPEPDEKLWDPVGYYYSDGSLKIVPGHARCQPGGGPPSPPPGIPGQPLPSPTRLHLGGGRNSNANGYVRLQLGGEDRGGLGHPLPELADELRRKLQQRQPLPDSNPEESSV
Take B1: binding was put at a Kd of 4.5 µM.
